Laboratory results taken from patent US20210252161A1 (Bayer, published 2021).

Target: T1, TPP-2614, TweakR-ECD-34-68-hIgGFc-His-D47A (human)
T1 construct: alanine-scan mutein; used as HEK293 supernatant
Test: ELISA, IgG coated at 1 µg/ml, 8-fold diluted HEK293 supernatant with the TWEAKR(34-68)-Fc mutein, anti-HIS-HRP, Amplex Red
Procedure: These TWEAKR(34-68) Fc muteins were expressed in HEK293 cells. To obtain dose-reaction data, IgGs were coated at a concentration of 1 μg/ml onto a 384-well Maxisorp ELISA plate, and a serial 2-fold dilution of the supernatant comprising the TWEAKR mutein was used as soluble binding partner. Detection was carried out using anti-HIS-HRP and Amplex Red.

B1: TPP-2090 (antibody, human IgG1, kappa, V domains shown)
VH: EVQLLESGGGLVQPGGSLRLSCAASGFTFSPYPMIWVRQAPGKGLEWVSYISPSGGSTHYADSVKGRFTISRDNSKNTLYLQMNSLRAEDTAVYYCARGGDTYFDYFDYWGQGTLVTVSS
VL: DIQMTQSPSSLSASVGDRVTITCRASQSISGYLNWYQQKPGKAPKLLIYQASSLQSGVPSRFSGSGSGTDFTLTISSLQPEDFATYYCQQSYTSPFITFGQGTKVEIKR
notes: human IgG1, anti-TWEAKR; biotinylated where used as soluble partner in the ELISAs
- binding result: no binding (tested: 8-fold diluted supernatant)
